Laboratory results: paper PMC5518674

Biological target: T1, HisMBP-TZAP Znf9-11 (UniProt P10074 521-600)
T1 sequence: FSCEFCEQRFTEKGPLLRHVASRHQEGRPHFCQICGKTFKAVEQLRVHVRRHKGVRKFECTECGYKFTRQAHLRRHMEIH
Test: EMSA

B1: Telo6 (dsDNA)
DNA 1: GGTCGACTCTAGAGATCGAAGGGTTAGGGTTAGGGTTAGGGTTAGGGTTAGGGTTACGATCCCGGGTACCGAGCTCGA
DNA 2: TCGAGCTCGGTACCCGGGATCGTAACCCTAACCCTAACCCTAACCCTAACCCTAACCCTTCGATCTCTAGAGTCGACC
B1: binds.
